What all share (assay): native gel or EMSA
The target in series [1] is KaiB3 (recombinant, GST-tag removed) (Synechocystis sp. PCC 6803).
Series [2] concerns the target KaiA3-His6 (Synechocystis sp. PCC 6803).
Series [3] addresses Strep-KaiC3 (Synechocystis sp. PCC 6803).
The series “native gel or EMSA” deals with the molecule itself.

Where only a bound is given, the exact number is not on record here.

Consider “KaiB3 (recombinant, GST-tag removed) (natural protein)”, for which the stoichiometry N in series [1] was 4.
KaiA3-His6 (natural protein) registered a stoichiometry N in series [2] of over 2.
As to Strep-KaiC3 (natural protein), the stoichiometry N in series [3] came out at 6.

B1: Synechococcus KaiA (recombinant, GST-tag removed) (natural protein, Synechococcus elongatus PCC 7942, UniProt Q79PF6 1-284, looked up)
chain: MLSQIAICIWVESTAILQDCQRALSADRYQLQVCESGEMLLEYAQTHRDQIDCLILVAANPSFRAVVQQLCFEGVVVPAIVVGDRDSEDPDEPAKEQLYHSAELHLGIHQLEQLPYQVDAALAEFLRLAPVETMADHIMLMGANHDPELSSQQRDLAQRLQERLGYLGVYYKRDPDRFLRNLPAYESQKLHQAMQTSYREIVLSYFSPNSNLNQSIDNFVNMAFFADVPVTKVVEIHMELMDEFAKKLRVEGRSEDILLDYRLTLIDVIAHLCEMYRRSIPRET
Take B1: the “stoichiometry N” value in “native gel or EMSA” worked out at 2.
